Data: US20240158500A1 (UCL BUSINESS, published 2024)
Changes are numbered by the printed parent chain.

Experiments:
[1] = molecular target: CD160 fused with Twin streptag (panning reagent from transfected 293T supernatant, unpurified or purified via its Fc region) (human) (UniProt O95971); assay: ELISA, coating antigen HEK supernatant (unpurified CD160 mIgG2a Fc), BY55-huIgG1 titrated, OD 450nm. The table under panel C repeats the value. The curve has no upper plateau in the range shown
[2] = molecular target: commercially sourced CD160 protein (UniProt O95971); assay: ELISA, coating antigen CD160-His (Commercial CD160), BY55-huIgG1 titrated, OD 450nm. The table under panel C repeats the value
[3] = molecular target: CD160 fused with Twin streptag (panning reagent from transfected 293T supernatant, unpurified or purified via its Fc region) (human) (UniProt O95971); assay: ELISA, coating antigen CD160-Fc purified (Purified CD160 mIgG2a Fc), BY55-huIgG1 titrated, OD 450nm. The table under panel C repeats the value. The curve has no upper plateau in the range shown
[4] = molecular target: human CD160, GPI-anchored isoform, on engineered cells (SupT1, 293T) (human) (UniProt O95971); assay: flow cytometry, 293T cells transiently transfected with pVAC2 human CD160; the same quadrant on non-transfected 293T cells prints 1.53
[5] = molecular target: human CD160, GPI-anchored isoform, on engineered cells (SupT1, 293T) (human) (UniProt O95971); assay: flow cytometry, BY55-IgM-PE. The thick histogram (SupT1 CD160) peaks at about 10^4, the thin one (SupT1 negative) below 10^2 [Continued) B]
[6] = molecular target: human CD160, GPI-anchored isoform, on engineered cells (SupT1, 293T) (human) (UniProt O95971); assay: flow cytometry, 293T cells transiently transfected with pVAC2 human CD160; the same quadrant on non-transfected 293T cells prints 0.071
[7] = molecular target: T1, purified CD160 (SPR analyte) (UniProt O95971 25-159, limits assumed); assay: SPR, Biacore T200, scFv captured on CM5 chip, CD160 as analyte, single-cycle kinetics, 1:1 Langmuir fit
T1 sequence (looked up): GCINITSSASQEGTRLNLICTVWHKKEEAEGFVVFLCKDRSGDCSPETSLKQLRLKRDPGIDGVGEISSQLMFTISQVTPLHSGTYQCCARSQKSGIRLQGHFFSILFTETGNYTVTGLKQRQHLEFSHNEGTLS
Protocol: FIG. 8—Characterization of the monoclonal scFv identified in the biopanning. [A] […] We identified five different CDR3H in which three were represented in multiple clones and […]. [B] Flow cytometry analysis of the five selected CDR3 expressed secreted as chimeric scFv fused with mIgG2aFc. […] [C] The affinity of these five scFv was determined using Biacore T200 technology. Individual scFvs were captured on a CM5 chip and CD160 was injected as analyte at 5 different concentration (3.70 nM, 11.11 nM, 33.33, nM, 100 nM and 300 nM) in a single-cycle kinetic study. The double-reference subtracted sensorgrams fitted with the 1:1 Langmuir binding model; kinetic and model fitting data are reported in the table.
The kinetic profile of the scFvs was studied by SPR using purified CD160 as the analyte and a range of high affinity scFvs were found (FIG. 8).

Question: Which results are given for BY55-huIgG1 (antibody)?
Answer: EC50 [1]: 0.06 µg/mL; EC50 [2]: 0.14 µg/mL; EC50 [3]: 0.21 µg/mL

Question: What does the source list for commercial anti-CD160 antibody BY55?
Answer: Q1 (anti-CD160-PE positive, blank channel negative), share of cells [4]: 66%; CD160+ (gate, share of cells) [5]: 92.9; Q2 (anti-CD160-PE positive, blank channel positive), share of cells [6]: 14%

B1: anti-CD160 scFv clone 16 (scFv)
scFv: QVNLQESGPGLVRPSETLSLTCTVSGFSLISYGVNWFRQPPGKGLEWMGTIWNDGGTDYNSALKSRLSISRDTSKSQVFLKMNSLQTEDTAIYFCARGFEHWGQGVMVTVSSGGGGSGGGGSGGGGSDIQMTQSPASLSASLGETVSIECLTSEDISNDSAWYQQKSGKSPQLLIYAASRLQDGVPSRFSGSGSGTRYSLKISGMQPEDEADYFCQQSYKYPLTFGSGTKLEIKR
notes: Rat scFv, VH-linker-VL
Question: Which Kd [7] does the source give for B1 here?
Answer: 8.72 nM

Question: What about the koff [7] of the same molecule?
Answer: 0.00243 s⁻¹

Question: And the kon [7]?
Answer: 279000 M⁻¹ s⁻¹

B2: anti-CD160 scFv clone 6 (SC14) (scFv)
scFv: EVQLVESGGGFVQPGRSLKLSCAASGFTFSNYAMAWVRQAPTKGLEWVASINSGGGDSYYRDSVKGRFTISRDNAKNTQYLQMDSLRSEDTATYYCATHNYGSTIFDYWGQGAMVTVSSGGGGSGGGGSGGGGSEIILTQSPTTMTASPGEKVTITCRASSSVSYMHWYQQKPGASPKPWIYETSKLASGVPDRFSGSGSGTSYSLTINNMEAEDAATYYCQQWNYPSMYTFGAGTKLELKR
notes: Rat scFv, VH-linker-VL
Question: What does the source list for B2?
Answer: Kd [7]: 0.541 nM; koff [7]: 0.000143 s⁻¹; kon [7]: 264000 M⁻¹ s⁻¹

B3: anti-CD160 scFv clone 9 (PB6) (scFv)
scFv: EVQLVESGGGLVQPGRSLKLSCAASGFTFSNYAMAWVRQAPTKGLEWVASISSGGGDTYYRDSVKGRFTISRDNSKNTQYLQMDSLRSEDTATYYCATHNYESTVLITWGQGASVTVSSGGGGSGGGGSGGGGSEIVLTQSPTTTAASPGERVTITCRASSSVSYMHWYQQKPGASPKPWIYETSKLASGVPDRFSGSGSGTSYSLTINNMEAEDAATYYCQQWNYPSMYTFGAGTKLEIKR
notes: Rat scFv, VH-linker-VL
Question: Which results are given for B3?
Answer: Kd [7]: 5.18 nM; koff [7]: 0.00211 s⁻¹; kon [7]: 408000 M⁻¹ s⁻¹

B4: anti-CD160 scFv clone 11 (PB10) (scFv)
scFv: EVQLVESGGGLVQPGRSLKLSCAASGFTFSNYGMAWVRQAPTKGLEWVASINTSGGSTYYRDSVKGRFTISRDNAKSTLYLQMDSLRSEDTATYYCATIYYHDGSYYYAGWFAYWGQGTLVTVSSGGGGSGGGGSGGGGSDIVLTQSPALAVSPGERVSISCRASESVSTLMHWYQQKLGQQPKLLIYGASNLESGVPARFSGSGSGTDFTLNIDPVEADDIATYFCQQSWNGPWTFGGGTKLELKR
notes: Rat scFv, VH-linker-VL
Question: How did the Kd [7] turn out when B4 was run?
Answer: 9.15 nM

Question: What about the koff [7] of the same molecule?
Answer: 0.00125 s⁻¹

Question: What about the kon [7] of the same molecule?
Answer: 137000 M⁻¹ s⁻¹

B5: anti-CD160 scFv clone 7 (scFv)
scFv: EVQLVESGPGLVQPSETLSLTCTVSGFSLTSHGVNWFRQPPGKGLEWMGTIWNDGGTDYNSALKSRLSIIRDTSKGQVFLKMNSLQTEDTAIYFCARGLAYWGQGTLVTVSSGGGGSGGGGSGGGGSDIQMTQSPASLSASLGETVNIECLASEDIYSDLAWYQQKPGKSPQLLIYNANSLQNGVPSRFSGSGSGTQYSLKINSLQSEDVATYFCQQYNNYPWTFGGGTKLEIKR
notes: Rat scFv, VH-linker-VL
Question: How did the Kd [7] turn out when B5 was run?
Answer: 0.33 nM

Question: And the koff [7]?
Answer: 0.00035 s⁻¹

Question: What about the kon [7] of the same molecule?
Answer: 1.06e+06 M⁻¹ s⁻¹

B6: anti-CD160 scFv clone 10 (scFv)
scFv: EVQLVESGPGLVQPSETLSLTCTVSGFSLTSYGVNWFRQPPGKGLEWMGTIWNDGGTDYNSALKSRLSISRDTSKSQVFLKMNSLQTEDTAIYFCARGFEYWGQGTLVTVSSGGGGSGGGGSGGGGSDIVMTQSPKSMSISVGDRVTMNCKASQNVGKNIAWYQQKPGQSPKLLIYYASNRYTGVPDRFTGSGSGTDFTLTITNMQTEDLAVYYCLQYNYNPWTFGGGTKLELKR
notes: Rat scFv, VH-linker-VL
Question: For B6, which Kd [7] is on record?
Answer: 8.91 nM

Question: And the koff [7]?
Answer: 0.00245 s⁻¹

Question: What about the kon [7] of the same molecule?
Answer: 275000 M⁻¹ s⁻¹

B7: anti-CD160 scFv clone 2 (C25) (scFv)
scFv: EVQLVESGGDLVQPGRSLKLSCAASGFTFSNYGMAWVRQAPTKGLEWVASVSNGGGNTYYRDSVKGRFTISRDNAKNTQYLQMDSLRSEDTATYYCVTHNYESTVFDYWGQGAMVTVSSGGGGSGGGGSGGGGSEIVLTQSPTTMTASPGEKVTITCRASSSVSYMHWYQQKPGASPKPWIYETSKLASGVPDRFSGSGSGTSYSLTINNMEAEDAATYYCQQWNYPSMYTFGPGTKLELKR
Question: Which results are given for B7?
Answer: Kd [7]: 0.262 nM; koff [7]: 6.51e-05 s⁻¹; kon [7]: 249000 M⁻¹ s⁻¹

B8: anti-CD160 scFv clone 12 (scFv)
scFv: EVQLVESGGGFVQPGGSLKLSCAASGFTFSNYGMAWVRQAPKKGLEWVASISSGRGNTYYRDSVKGRFTISRDNAKNTQYLQMDSLRSEDTATYYCVTHNYESTIFDYWGQGVMVTVSSGGGGSGGGGSGGGGSEIVLTQSPTTMTASPGEKVTIICRASSSVSYMHWYQQKPGASPKPWIYETSKLASGVPDRFSGSGSGTSYSLTFNNMEAEDAATYYCQQWNYPSMYTFGAGTKLELKR
notes: Rat scFv, VH-linker-VL
Question: B8 was tested. Which Kd [7] did it give?
Answer: 0.000853 nM

Question: And the koff [7]?
Answer: 1.75e-07 s⁻¹

Question: And the kon [7]?
Answer: 205000 M⁻¹ s⁻¹

B9: anti-CD160 scFv clone 19 (scFv)
scFv: B7 scFv with Q3K, D10G, S50T, V51I, T98A, T144P, P234A
notes: Rat scFv, VH-linker-VL
Question: For B9, which Kd [7] is on record?
Answer: 5.31 nM

Question: What about the koff [7] of the same molecule?
Answer: 0.000833 s⁻¹

Question: What about the kon [7] of the same molecule?
Answer: 157000 M⁻¹ s⁻¹

B10: anti-CD160 scFv clone 8 (PB9) (scFv)
scFv: QVNLQESGPGLVQPSETLSLTCTVSGFSLTNYGINWFRQPPGKGLEWMGTIWNDGGTDYNSALKSRLSISRDTSKSQVFLKMNSLQTEDTAIYFCARGMDAWGQGASVTVSSGGGGSGGGGSGGGGSDIQMTQSPASLSASLGETVSIECLASEDIYNNLAWYQQKPGKSPQLLIYYANSLQDGVPSRFSGSGSGTQYSLKINSLQSEDVATYFCQQYNNYPFTFGSGTKLELKR
notes: Rat scFv, VH-linker-VL
Question: B10 was tested. Which Kd [7] did it give?
Answer: 4.92 nM

Question: What about the koff [7] of the same molecule?
Answer: 0.00804 s⁻¹

Question: And the kon [7]?
Answer: 1.63e+06 M⁻¹ s⁻¹

B11: anti-CD160 scFv clone 3 (C83) (scFv)
scFv: QVNLQESGPGLVQPSETLSLTCTVSGFSLTSYGVYWVRQPPGKGLEWMGRIWNDGGTDYNPALKSRLSISRDTSKSQVFLKLNSLQTEDTAIYFCARGWTHWGQGTLVTVSSGGGGSGGGGSGGGGSDIQMTQSPASLSASLGETVSIECLASEDIYNNLAWYQQKPGKSPQLLIYYASSLQDGVPSRFSGSGSGTQYSLKINSLESEDVATYFCLQDSEYPPTFGGGTKLELKR
Question: Which results are given for B11?
Answer: Kd [7]: 1.5e-05 nM; koff [7]: 1.69e-08 s⁻¹; kon [7]: 1.13e+06 M⁻¹ s⁻¹

B12: anti-CD160 scFv clone 1 (C123) (scFv)
scFv: EVKLVESGGGLVQPGRSLKLSCAASGFIFSNYAMAWVRQAPTKGLEWVASVNSGGANTYYRDSVKGRFTISRDNAKNTQYLHIDSLRSEDTATYYCATHNYESTVFDYWGQGAMVTVSSGGGGSGGGGSSGGGGSEIVLTQSPTTMTASPGEKVTITCRASSSVSYMHWYQQKPGASPKPWIYETSKLASGVPDRFSGSGSGTSYSLTINNMEAEDAATYYCQQWNYPSMYTFGAGTKLELKR
notes: Rat scFv, VH-linker-VL
Question: With B12 as the molecule, how does the Kd [7] read?
Answer: 0.00154 nM

Question: What about the koff [7] of the same molecule?
Answer: 2.76e-07 s⁻¹

Question: What about the kon [7] of the same molecule?
Answer: 179000 M⁻¹ s⁻¹

B13: anti-CD160 scFv clone 4 (scFv)
scFv: EVKLVESGGGLVQPGRPLKLSCAASGFTFSNYGMAWVRQAPKKGLEWVATISTGDDNTYYRDSVKGRFTISRDNAKNTQYLQMDSLRSEDTATYYCATHNYESTIFDYWGQGVMVTVSSGGGGSGGGGSGGGGSDIAITQSPASMTASPGERVTITCRASSSVSYMHWYQQKPGASPKPWIYETSKLASGVPDRFSGSGSGTSYSLTINNMEAEDAATYYCQQWNYPSMYTFGAGTKLELKR
Question: How did the Kd [7] turn out when B13 was run?
Answer: 0.12 nM

Question: And the koff [7]?
Answer: 3.9e-05 s⁻¹

Question: And the kon [7]?
Answer: 325000 M⁻¹ s⁻¹

B14: anti-CD160 scFv clone 5 (C10) (scFv)
scFv: QVQLKESGPGLVQPSETLSLTCTVSGFSLTNYGINWFRQPPGKGLEWMGTIWNDGGTDYNSALKSRLTISRDTSKSQVFLKMNSLQTEDTAIYFCARGMEAWGQGASVTVSSGGGGSGGGGSGGGGSDIQLTQSPSLLSASVGDRVTLSCKGSQNINNYLAWYQQKLGEAPKLLIYNTNSLQTGIPSRFSGSGSGTDYTLTISSLQPEDFATYFCLQHNSGYTFGAGTKLEIKR
notes: Rat scFv, VH-linker-VL; also called 010
Question: Which Kd [7] does the source give for B14 here?
Answer: 18.4 nM

Question: What about the koff [7] of the same molecule?
Answer: 0.0305 s⁻¹

Question: What about the kon [7] of the same molecule?
Answer: 1.65e+06 M⁻¹ s⁻¹
